Reference: article PMC4709122 (Nature structural & molecular biology, 2015)

Assays:
Assay in all cases: fluorescence polarisation
[1] = biological target: UBC9–SUMO2^B non-covalent complex (human, UniProt P63279;P61956)
[2] = biological target: SUMO2 (construct not stated for this experiment) (human, UniProt P61956 1-95)
[3] = biological target: UBC9 (human SUMO E2, untagged) (human, UniProt P63279 1-158)
Sequence of UBC9 (human SUMO E2, untagged) (P63279 whole entry): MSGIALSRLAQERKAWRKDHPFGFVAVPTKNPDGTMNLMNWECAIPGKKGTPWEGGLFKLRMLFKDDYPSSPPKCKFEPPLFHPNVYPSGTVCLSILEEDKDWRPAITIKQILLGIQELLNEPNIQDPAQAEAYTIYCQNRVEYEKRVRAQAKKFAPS

- Kd [1]: 2 µM
- Kd [2]: 120 to 150 µM
- Kd [3]: 10 to 16 µM
B1: Alexa488-labeled CysZNF451(2–56) (domain or fragment)
chain: CGDPGSEIIESVPPAGPEASESTTDENEDDIQFVSEGPLRPVLEYIDLVSSDDEEP
modifications: Alexa488-maleimide on the single engineered N-terminal cysteine
